Measurements as given in patent US20230137032A1 (GlaxoSmithKline, published 2023).

T1: human BCMA expressed on cells (human, UniProt Q02223 1-184)
T1 construct: whole, on cells; also called human BCMA HEK293; ARH77-hBCMA 10B5 BCMA expressing transfectant cells
T1 sequence (looked up): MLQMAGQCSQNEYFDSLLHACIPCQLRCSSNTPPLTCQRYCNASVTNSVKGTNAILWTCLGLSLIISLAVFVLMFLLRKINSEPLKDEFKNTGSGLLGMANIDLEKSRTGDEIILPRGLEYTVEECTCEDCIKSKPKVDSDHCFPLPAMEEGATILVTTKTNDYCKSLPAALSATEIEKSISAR


Experiments:
[1] = biological target: T2, recombinant human BCMA, in house material (human, UniProt Q02223 4-53, limits assumed); test: ProteOn SPR run 2, antibody captured on Protein A, 25C
T2 construct: also called Human in house BCMA; In house human BCMA

[2] = biological target: T3, recombinant cyno BCMA, in house material (cyno, UniProt A0A2K5UD97 4-52); test: as above
T3 construct: also called Cyno in house BCMA
T3 sequence (A0A2K5UD97 entry or part of it): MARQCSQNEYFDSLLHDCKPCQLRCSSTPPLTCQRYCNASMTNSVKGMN

[3] = biological target: T1, human BCMA expressed on cells; test: FACS on H929 multiple myeloma cells, PE anti-mouse IgG
Experimental: Cells were incubated for 20 mins at room temperature (RT) and then washed with FACS buffer (PBS+0.5% BSA+0.1% sodium azide) to remove unbound antibody. Cells were incubated with a secondary PE labelled anti-mouse IgG antibody for 15 minutes at RT and then washed with FACS buffer to remove unbound antibody. Cells were analysed by FACS to detect antibody bound to the cells.

Binder	binding result [1]	binding result [2]	binding result [3]
S307118G03 H5L1 (antibody, human IgG1, kappa, V domains shown, Humanised, human IgG1 kappa; also called S307118G03 humanised H5L1) VH: QVQLVQSGAEVKKPGSSVKVSCKASGYTFTDYYMKWVRQAPGQGLEWIGEIYPNNGGITYNQKFKGRATLTVDKSTSTAYMELSSLRSEDTAVYYCANGYEFDYWGQGTLVTVSS VL: DIQMTQSPSSLSASVGDRVTITCSASQGISNYLNWYQQKPGKAPKLLIYYTSSLHSGVPSRFSGSGSGTDYTLTISSLQPEDFATYYCQQYSKLPWTFGQGTKLEIKR	no binding (tested: up to 256 nM)	no binding	–
murine S307118G03 (antibody, IgG2a, V domains shown, Murine hybridoma antibody; also called S307118G03 (murine parental mAb)) VH: EVQLQQSGPELVKPGASVKISCKASGYTFTDYYMKWVKQSHGKSLEWIGEIYPNNGGITYNQKFKGKATLTVDKSSSTAYMELRSLTSEDSAVYYCANGYEFVYWGQGTLVTVSA VL: DIQMTQTASSLSASLGDRVTISCSASQGISNYLNWYQQKPDGTVKLLIYYTSSLHSGVPSRFSGSGSGTDYSLTISNLEPEDIATYYCQQYSKLPWTFGGGTKLEIKR	–	–	binds
